Results on four molecules are retold here after patent publication US20030104507A1, “Method for detection of ATP” (priority 2001, published 2003).

Residue numbers refer to the chain shown, from its start. Like-named read-outs stand apart in the source and are kept apart here.

For data set [1], the target named is native firefly luciferase (Photinus pyralis, UniProt P08659). Particulars: cited from earlier work.
Another data set concerns LucPpe2m90. Format: biochemical, Photuris pennsylvanica. To be noted: for Half life: buffer; for Average rlu: 37° C. On the procedure:
(§1) The stability of a reagent composition composition comprising LucPpe2 luciferase was compared to a reagent composition comprising LucPpe2m90 and a reagent composition comprising LucPpe2m146, in the presence and absence of 0.1% DTAB. These mutant luciferases are thermostable; they are described in detail in PCT application PCT/US99/30925, filed Dec. 22, 1999.
(§2) Each enzyme was diluted to 0.05 mg/ml to a final volume of 1.0 ml in either 25 mM HEPES, pH 8.0 or 20 mM citrate, pH 6.0; both with 100 mM NaCl, 1 mM EDTA, 0.1% gelatin and 5% glycerol. In half of the samples, 0.1% DTAB was added. The enzyme solutions (“reagent compositions”) were incubated at 37° C.
(§3) At various timepoints, 10 μl of enzyme solution was transferred to a 96-well luminometer plate in triplicate. Then, in triplicate, 100 μl room temperature luciferase assay reagent (1 mM luciferin, 0.2 mM ATP, 10 MM MgSO4 in 50 mM HEPES, pH 8.0) was added to each 10 μl enzyme solution aliquot, mixed and immediately read in a Dynex MLX microtiter plate luminometer. The ATP in the luciferase assay reagent is at a saturating concentration. The average rlu values are reported, as are the half lives of the reagent composition activity as measured by luminescence (Table P). Half-life was calculated using the formula log (0.5)/slope of the data plotted as time (x axis) versus log value of rlu. The time zero is actually about 2-3 minutes after the mixing of enzyme and substrate; this could account for the lower numbers in the presence of DTAB at time 0 than in the absence of DTAB.

A further data set relates to LucPpe2m146. In kind it is biochemical, Photuris pennsylvanica. Particulars: for Half life: buffer; for Average rlu: 37° C. On the procedure: as §1, §2, §3

Sequence of native firefly luciferase (P08659 whole entry): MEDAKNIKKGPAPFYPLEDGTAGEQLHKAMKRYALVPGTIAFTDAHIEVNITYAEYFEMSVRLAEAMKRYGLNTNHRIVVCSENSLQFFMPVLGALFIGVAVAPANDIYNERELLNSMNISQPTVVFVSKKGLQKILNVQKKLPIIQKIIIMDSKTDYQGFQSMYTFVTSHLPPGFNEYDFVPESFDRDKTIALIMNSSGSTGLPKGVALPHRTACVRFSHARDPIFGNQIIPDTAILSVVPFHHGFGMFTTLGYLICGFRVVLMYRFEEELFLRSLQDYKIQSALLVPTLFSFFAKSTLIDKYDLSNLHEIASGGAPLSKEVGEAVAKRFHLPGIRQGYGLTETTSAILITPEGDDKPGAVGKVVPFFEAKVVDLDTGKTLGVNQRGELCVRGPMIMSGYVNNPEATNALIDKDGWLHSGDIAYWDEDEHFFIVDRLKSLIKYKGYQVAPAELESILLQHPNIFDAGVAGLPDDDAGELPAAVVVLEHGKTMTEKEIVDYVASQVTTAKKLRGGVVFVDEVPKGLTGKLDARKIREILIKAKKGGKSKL

Take `Cc1cc(C(C)(C)CC(C)(C)C)ccc1OCCOCC[N+](C)(C)Cc1ccccc1.[Cl-]` [methylbenzethonium chloride]: the “effect on native firefly luciferase” value in data set [1] is “inactivated”.
On to benzalkonium chloride, for which the “effect on native firefly luciferase” value in data set [1] is given as “inactivated”.

B1: LucPpe2m90: mutant luciferase derived from LucPpe2, SEQ ID NO:2 (protein)
chain: MADKNILYGPEPFYPLEDGTAGEQMFDALSRYADIPGCIALTNAHTKENVLYEEFLKLSCRLAESFKKYGLKQNDTIAVCSENGLQFFLPVIASLYLGIIVAPVNDKYIERELIHSLGIVKPRIVFCSKNTFQKVLNVKSKLKSIETIIILDLNEDLGGYQCLNNFISQNSDSNLDVKKFKPYSFNRDDQVALIMFSSGTTGLPKGVMLTHKNIVARFSLAKDPTFGNAINPTTAILTVIPFHHGFGMMTTLGYFTCGFRVVLMHTFEEKLFLQSLQDYKVESTLLVPTLMAFLAKSALVEKYDLSHLKEIASGGAPLSKEIGEMVKKRFKLNFVRQGYGLTETTSAVLITPKGDAKPGSTGKIVPFHAVKVVDPTTGKILGPNEPGELYFKGPMIMKGYYNNEEATKAIIDNDGWLRSGDIAYYDNDGHFYIVDRLKSLIKYKGYQVAPAEIEGILLQHPYIVDAGVTGIPDEAAGELPAAGVVVQTGKYLNEQIVQDYVASQVSTAKWLRGGVKFLDEIPKGSTGKIDRKVLRQMFEKHTNG
modifications: Mutant of LucPpe2 luciferase
As to B1, the “Half life” value in the data set on LucPpe2m90 (pH 6) is on record as 510.5 min; with LucPpe2m90 (pH 8), 487.5 min. Moreover, the Average rlu amounted to 16263.53 rlu in the data set on LucPpe2m90 (pH 6.0 + 0.1% DTAB, 0 min); 15535.4 rlu in the data set with LucPpe2m90 (pH 6.0 + 0.1% DTAB, 59 min); 13421.5 rlu in the data set on LucPpe2m90 (pH 6.0 + 0.1% DTAB, 123 min); 14061.8 rlu in the data set with LucPpe2m90 (pH 6.0 + 0.1% DTAB, 183 min); 11924.03 rlu with LucPpe2m90 (pH 6.0 + 0.1% DTAB, 239 min); 20031.03 rlu with LucPpe2m90 (pH 6.0, 0 min). Besides, the Average rlu in the data set on LucPpe2m90 (pH 6.0, 59 min) is on record as 18453 rlu; in the data set on LucPpe2m90 (pH 6.0, 123 min), 15966.03 rlu; in the data set on LucPpe2m90 (pH 6.0, 183 min) it was 15546.4 rlu; in the data set on LucPpe2m90 (pH 6.0, 239 min) it was 14519.63 rlu; with LucPpe2m90 (pH 8.0 + 0.1% DTAB, 0 min) it was 22401.4 rlu; with LucPpe2m90 (pH 8.0 + 0.1% DTAB, 59 min) it was 15332.67 rlu. For the same molecule, the Average rlu in the data set with LucPpe2m90 (pH 8.0 + 0.1% DTAB, 123 min) was 12383.75 rlu; with LucPpe2m90 (pH 8.0 + 0.1% DTAB, 183 min), 11271.25 rlu; with LucPpe2m90 (pH 8.0 + 0.1% DTAB, 239 min) it was 9551.65 rlu; with LucPpe2m90 (pH 8.0, 0 min), 15795.17 rlu; with LucPpe2m90 (pH 8.0, 59 min), 15510.77 rlu; with LucPpe2m90 (pH 8.0, 123 min) it was 13735.67 rlu. Also, the Average rlu was determined as 13271.05 rlu in the data set with LucPpe2m90 (pH 8.0, 183 min) and 11115.13 rlu in the data set on LucPpe2m90 (pH 8.0, 239 min).

B2: LucPpe2m146: mutant luciferase derived from LucPpe2, SEQ ID NO:4 (protein)
chain: B1 chain with D34A, G84S, L193S, L220I, T234S, F367L, F538L
modifications: Mutant of LucPpe2 luciferase
Take B2: the “Half life” value with LucPpe2m146 (pH 6) turned out to be 820.8 min; in the data set on LucPpe2m146 (pH 8) it was 595.5 min. Also, the Average rlu in the data set on LucPpe2m146 (pH 6.0 + 0.1% DTAB, 0 min) amounted to 5945.34 rlu; with LucPpe2m146 (pH 6.0 + 0.1% DTAB, 61 min) it was 5989.65 rlu; in the data set with LucPpe2m146 (pH 6.0 + 0.1% DTAB, 125 min), 3754.71 rlu; with LucPpe2m146 (pH 6.0 + 0.1% DTAB, 183 min), 4839.58 rlu; in the data set with LucPpe2m146 (pH 6.0 + 0.1% DTAB, 237 min), 4951.0 rlu; in the data set with LucPpe2m146 (pH 6.0, 0 min), 7685.01 rlu. In addition, the Average rlu with LucPpe2m146 (pH 6.0, 61 min) was determined as 7077.29 rlu; with LucPpe2m146 (pH 6.0, 125 min), 5507.01 rlu; with LucPpe2m146 (pH 6.0, 183 min), 6144.94 rlu; in the data set on LucPpe2m146 (pH 6.0, 237 min) it was 6471.76 rlu; in the data set with LucPpe2m146 (pH 8.0 + 0.1% DTAB, 0 min) it was 6445.57 rlu; in the data set with LucPpe2m146 (pH 8.0 + 0.1% DTAB, 61 min), 6214.56 rlu. Further, the Average rlu in the data set on LucPpe2m146 (pH 8.0 + 0.1% DTAB, 125 min) came out at 4018.92 rlu; in the data set on LucPpe2m146 (pH 8.0 + 0.1% DTAB, 183 min), 4020.56 rlu; in the data set with LucPpe2m146 (pH 8.0 + 0.1% DTAB, 237 min), 3734.59 rlu; in the data set with LucPpe2m146 (pH 8.0, 0 min), 6652.84 rlu; in the data set on LucPpe2m146 (pH 8.0, 61 min), 6577.91 rlu; in the data set on LucPpe2m146 (pH 8.0, 125 min) it was 5192.73 rlu. The Average rlu in the data set with LucPpe2m146 (pH 8.0, 183 min) worked out at 5476.86 rlu; in the data set with LucPpe2m146 (pH 8.0, 237 min) it was 5174.22 rlu.
